Experimental findings from patent US20170267750A1, “Method of Treating Ovarian and Renal Cancer Using Antibodies Against T Cell Immunoglobulin Domain and Mucin Domain 1 (TIM-1) Antigen” (Celldex Therapeutics, Inc., priority 2005, published 2017) are described below.

Changes are numbered by the printed parent chain.

T1: TIM-1 antigen (Homo sapiens, UniProt Q96D42, DEL158-162/L179P)
T1 construct: V5; His; made in house; host or cells: baculovirus expression system (pMelV5His vector / pBlueBac)
T1 sequence (Q96D42 with tags, fused parts or gaps DEL158-162/L179P): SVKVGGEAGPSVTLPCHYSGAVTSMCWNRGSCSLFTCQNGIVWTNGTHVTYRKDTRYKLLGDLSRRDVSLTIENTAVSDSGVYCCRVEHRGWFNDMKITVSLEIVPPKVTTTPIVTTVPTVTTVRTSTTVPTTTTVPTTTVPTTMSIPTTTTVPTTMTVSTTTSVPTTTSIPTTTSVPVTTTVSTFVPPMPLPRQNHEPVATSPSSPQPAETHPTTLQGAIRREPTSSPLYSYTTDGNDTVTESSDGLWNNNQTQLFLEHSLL

B1: mAb 2.56: fully human IgG4 kappa anti-TIM-1 monoclonal antibody; heavy chain SEQ ID NO: 30, light chain SEQ ID NO: 32 (antibody, listed as Homo Sapiens)
heavy: QVQLVESGGGVVQPGRSLRLSCAASGFTFSSYGMHWVRQAPGKGLEWVAVIWYDGSHKYYADSVKGRFTISRDNSKNTLYLQMNSLRAEDTAVYYSARDYYDTSRHHWGFDCWGQGTLVTVSSA
light: EIVMTQTPLSLPVTPGEPASISCRSSQSLLDSEDGNTYLDWYLQKPGQSPQLLIYTLSHRASGVPDRFSGSGSGTDFTLKISRVEAEDVGVYCCMQRVEFPITFGQGTRLEIKR
B2: mAb 2.54: fully human IgG4 kappa anti-TIM-1 monoclonal antibody; heavy chain SEQ ID NO: 26, light chain SEQ ID NO: 28 (antibody, listed as Homo Sapiens, V domains shown)
VH: QVQLEQSGGGVVQPGRSLRLSCAASGFTFTNYGLHWVRQAPGKGLDWVAVIWYDGSHKFYADSVKGRFTISRDNSKNTLFLQMNSLRAEDTAVYYCTRDLDYWGQGTLVTVSSA
VL: ETQLTQSPGTLSLSPGERVTLSCRASQSVSNNYLAWYQQKPGQAPRLLIYGASSRATGIPDRFSGSGSGTDFTLTISRLEPEDCAECYCQQYGSSLPLTFGGGTKVEIKR
B3: mAb 2.76: fully human IgG4 kappa anti-TIM-1 monoclonal antibody; heavy chain SEQ ID NO: 46, light chain SEQ ID NO: 48 (antibody, listed as Homo Sapiens, V domains shown)
VH: NNNNEQSGGGVVQPGRSLRLSCAASGFTFSSYGMYWVRQAPGKGLEWVAVIWYDGSNKYYADSVKGRFTISRDNSKNTLYLQMNSLRAEDTAVYYCARDFYDSSRYHYGMDVWGQGTTVTVSSA
VL: B1 light with E1N, I2N, V3N, M4N, T7C, E33D, L57V, H59Y, C93Y, V98I
B4: mAb 2.70: fully human IgG4 kappa anti-TIM-1 monoclonal antibody; heavy chain SEQ ID NO: 42, light chain SEQ ID NO: 44 (antibody, listed as Homo Sapiens, V domains shown)
VH: B1 heavy with T28I, S31R, E46K, H57N, Y59L, S96C, T103N, C112Y
VL: B1 light with E1D, Q27R, E33D, H59Y, C93Y
B5: mAb 1.37: fully human IgG2 kappa anti-TIM-1 monoclonal antibody; heavy chain SEQ ID NO: 6, light chain SEQ ID NO: 8 (antibody, listed as Homo Sapiens, V domains shown)
VH: EVQLVESGGGLVQPGGSLRLSCAASGFTFTNYWMSWVRQAPGKGLEWVANIQQDGSEKYYVDSVRGRFTISRDNAKNSLYLQMNSLRAEDSAVYYCARWDYWGQGTLVTVSSA
VL: DIVMTQTPLSSTVILGQPASISCRSSQSLVHSDGNTYLNWLQQRPGQPPRLLIYMISNRFSGVPDRFSGSGAGTDFTLKISRVEAEDVGVYYCMQATESPQTFGQGTKVEIKR
B6: mAb 2.61: fully human IgG4 kappa anti-TIM-1 monoclonal antibody; heavy chain SEQ ID NO: 38, light chain SEQ ID NO: 40 (antibody, listed as Homo Sapiens, V domains shown)
VH: B1 heavy with S7A, S30R, E46K, H57N, A61T, S96C, A97V, T103N, C112Y
VL: DIQMTQSPSSRCASVGDRVTITCRASQGIRNDLAWYQQKPGKAPKRLIYAASSLQSGVPSRFSGSRSGTEFTLTISSLQPEDFAAYYCLQHNSYPPSFGQGTKLEIKR
B7: mAb 2.59: fully human IgG4 kappa anti-TIM-1 monoclonal antibody; heavy chain SEQ ID NO: 34, light chain SEQ ID NO: 36 (antibody, listed as Homo Sapiens, V domains shown)
VH: NNNNNQSGPRLVKPSQTLSLTCTVSGGSISSDGYYWSWIRQHPGKGLEWIGYIYYSGSTFYNPSLKSRVAISVDTSKNQFSLKLSSVTAADTAVYYCARESPHSSNWYSGFDCWGQGTLVTVSSA
VL: NNNNTQSPDFQSVTPKEKVTITCRASQSIGSRLHWYQQKPDQSPKLLIKYASQSFSGVPSRFSGSGSGTDFTLTINSLEAEDAATYYCHQSSNLPFTFGPGTKVDIKR

The target of the first assay is T1, TIM-1 antigen. The assay can be described thus: BiaCore affinity determination of anti-TIM-1 mAb. The class given is binding. Conditions: 25° C.; mAb captured on chip; TIM-1 antigen injected at 292 nM. The protocol: BiaCore® analysis was used to determine binding affinity of anti-TIM-1 antibody to TIM-1 antigen. The analysis was performed at 25° C. using a BiaCore® 2000 biosensor equipped with a research-grade CMS sensor chip. A high-density goat […] antibody surface over a CMS BiaCore® chip was prepared using routine amine coupling. Antibody supernatants were diluted to ˜5 μg/mL in HBS-P running buffer containing 100 μg/mL BSA and 10 mg/mL carboxymethyldextran. The antibodies were then captured individually on a separate surface using a 2 minute contact time, and a 5 minute wash for stabilization of antibody baseline.
TIM-1 antigen was injected at 292 nM over each surface for 75 seconds, followed by a 3-minute dissociation. Double-referenced binding data were obtained by subtracting the signal from a control flow cell and subtracting the baseline drift of a buffer inject just prior to the TIM-1 injection. TIM-1 binding data for each mAb were normalized for the amount of mAb captured on each surface. The normalized, drift-corrected responses were also measured.
As a reminder, the Kd is the equilibrium constant for the complex coming apart. Read a high Kd as a looser complex. In turn, B1 displayed a dissociation constant Kd of 1.1 nM. The same measure, in the same setting: the result for B2 reads 3.35 nM.

A further assay has as its target T1, TIM-1 antigen. Put plainly: Epitope binning (antigen binding competition, Luminex). The following applies: Table 9. The protocol:
Certain antibodies, described herein were “binned” in accordance with the protocol described in U.S. Patent Application Publication No. 20030157730, published on Aug. 21, 2003, entitled “Antibody Categorization Based on Binding Characteristics.”
MxhIgG conjugated beads were prepared for coupling to primary antibody. The volume of supernatant needed was calculated using the following formula: (n+10)×50 μL (where n=total number of samples on plate). Where the concentration was known, 0.5 μg/mL was used. Bead stock was gently vortexed, then diluted in supernatant to a concentration of 2500 of each bead per well or 0.5×10^5/mL and incubated on a shaker in the dark at room temperature overnight, or 2 hours if at a known concentration of 0.5 μg/mL. Following aspiration, 50 μL of each bead was added to each well of a filter plate, then washed once by adding 100 μL/well wash buffer and aspirating. Antigen and controls were added to the filter plate 50 μL/well then covered and allowed to incubate in the dark for 1 hour on shaker. Following a wash step, a secondary unknown antibody was added at 50 μL/well using the same dilution (or concentration if known) as used for the primary antibody. The plates were then incubated in the dark for 2 hours at room temperature on shaker followed by a wash step. Next, 50 μL/well biotinylated mxhIgG diluted 1:500 was added and allowed to incubate in the dark for 1 hour on shaker at room temperature. Following a wash step, 50 μL/well Streptavidin-PE was added at 1:1000 and allowed to incubate in the dark for 15 minutes on shaker at room temperature. Following a wash step, each well was resuspended in 80 μL blocking buffer and read using a Luminex system.
In turn, B3 gave a Bin of 4. The molecule B4 returned a Bin of 6.

As to B1, the Bin is 5. B5 gave a Bin of 4. B6 returned a Bin of 4. The same measure, in the same setting: the result for B7 reads 1; that for B2, 7.
